The values that follow come from patent US20210070881A1.

For the experiment, the target named is cellular BACE1 in CHOK1-huAPP cells. Kind of experiment: cell-based or functional assay.

B1: Clone35.23.4:Control IgG (anti-RSV)/2H8 (bispecific antibody, part only; not given: Anti-RSV arm; TfR-binding Fc, V domains shown, part only)
VH: QVQLVQSGAEVKKPGASVKVSCKASGYTFTNFWIHWVRQAPGQGLEWMGMIDPSSSYTKYNQKFKARATLTVDTSTSTVYMELSSLRSEDTAVYYCARSGASLPYWGQGTLVTVSS
VL: DIQMTQSPSSLSASVGDRVTITCKASQDVGRNVAWYQQKPGKSPKSLIYSASHYYSGVPSRFSGSGSGTDFTLTISSLQPEDFATYFCQQYYSYPYTFGQGTKVEIK
Consider B1, for which the cellular IC50 (human Aβ40, CHO-huAPP cells) stood at 37 nM and the maximum percent Aβ reduction compared to untreated control came to 83%.
